Experimental data: patent US20210032351A1 (XDCEXPLORER SHANGHAI, published 2021)
Substitutions are numbered along the chain they refer to.

B1: Murine anti-56F10-MMAF (antibody, V domains shown)
VH: EVQLQQSGAELVKPGASVKLSCTASGFNIKDFYMHWVKQRTEQGLEWIGRIDPEDGETKYAPKFQGKATITADTSSNTAYLQLSSLTSEDTAVYYCGCRTGGFAYWGQGTLVTVSA
VL: QIVLTQSPAIMSASPGEKVTMTCSASSSVSYLYWYQQKPGSSPSLLIYDTSNLASGVPVRFSGSGSGTSYSLTISRMEAEDAATYYCQQWSRNPWTFGGGTKLEIK
B2: Murine anti-59G3-MMAF (antibody, V domains shown)
VH: DVQLQESGPGLVKPSQSLSLTCSVTGYSITSGYYWHWIRQFPENKLEWMGYISYDGSNIYNPSLKNRISITRDTSKNQFFLKLNSVTTEDTATYYCAINSDYALDYWGQGTSVTVSS
VL: B1 VL with L32M, S44R, R92S, N93Y, P94S, W95L, G99A, I105L
B3: Murine anti-43H6-MMAF (antibody, V domains shown)
VH: INAEYAGGPGLVKPSQSLSLTCTVTDYSITSDYAWNWIRQFPGNKLEWMGYISYSGNTNYNPSLKSRISITRDTSKNQFFLQLNSVTTEDTATYYCARLGRGFAYWGQGTLVTVSA
VL: DILMTQSPSSMSVSLGDTVSITCHASQDINSNIGWLQQKPGTSFKGLIYHGRNLEDGVPSRFSGSGSGEDYSLTISSLESEDFADYYCVQYAHFPPTFGAGTKLELK
B4: Murine anti-53D8-MMAF (antibody, V domains shown)
VH: QVQLQQSGAELARPGASVKMSCKASGYTFTSYTMHWVKQRPGQGLEWIGYINPSSGYTKYNQIFKDKATLTADKSSSTAYMQLSSLTSEDSAVYYCTRGGGRGFAYWGQGTLVTVSA
VL: B3 VL with T42K, R52T, E69A, H93Q, P96F, A100S, L106I
B5: Murine anti-64B11-MMAF (antibody, V domains shown)
VH: B1 VH with F32Y, S85N, T87P
VL: B3 VL with D28G, T42K, G46A, R52T, E69A, H93Q, P96F, A100S, K103E, L106I
B6: Murine anti-49G12-MMAF (antibody, V domains shown)
VH: EVQLLQSGAELVKPGASVKLSCTASGFNIKDYYMHWVKQRTEQGLEWIGRIDPEDGETKYAPKFQGKATMTADTSSNTAYLQLSSLTSEDTAVYYCASSAYYGRNYWGQGTTLTVSS
VL: QIVLTQSPAIMSASPGEKVTLTCSASSSLSSSYLYWYQQKPGSSPKLWIYSTSNLASGVPARFSGSGSGTSYSLTISSMEAEDAASYFCHQWSSYPYTFGGGTKLEIK
B7: Murine anti-46C4-MMAF (antibody, V domains shown)
VH: EVHLQQSVAELVRPGASVKLSCTASGFNIKNTYMHWVKQRPEQGLEWIGRIDPANGNTKYAPKFQGKATITADTSSNTAYLQLSSLTSEDTAIYYCASDFDYWGQGTTLTVSS
VL: DVLMTQTPLSLPVSLGDQVSISCRSSQSIVNSNGNTHLEWYLQKPGQSPKVLIYKVSKRFSGVPDRFSGSGSGTDFTLKISRVEAEDLGVYYCFQGSHVPYTFGGGTKLEIK

Target: human EGFRvIII protein on the surface of U87MG-hEGFRvIII cells (human, UniProt P00533 25-1210)
Assay: cell-based or functional assay

Binder	IC50, cell killing of U87MG-hEGFRvIII cells (CellTiter-Glo)
B1	0.15 nM
B2	0.06 nM
B3	0.01 nM
B4	0.04 nM
B5	0.04 nM
B6	0.02 nM
B7	0.15 nM
